According to US8920805B2, “Inhibition of tumor metastasis by anti-neuropilin 2 antibodies” (Genentech, Inc., priority 2007, dated 2014):

Test system: E 17.5 Hippocampal growth cones
Assay: Hippocampal neuronal growth cone collapse assay (Sema3F)
Format: cell-based
Conditions: Anti-Nrp2^B 50 μg/ml; Nrp2 ECD 10 ug/ml
Protocol: FIG. 17. […] (A) Images of E 17.5 Hippocampal growth cones stained with rhodamine conjugated phalloidin. Control growth cones show large actin rich structures at the tip of each axon, which are reduced with Sema3F treatment. […] In contrast, Nrp2 ECD (10 ug/ml) does block this collapse. (B) Quality control for anti-Nrp2 immunohistochemistry. […] This antibody was subsequently used for IHC on fresh frozen tumor sections. (Scale bar main images=**μm and for inset images=**μm.
Then, the ability of Anti-Nrp2^B to modulate semaphorin function was tested. […] Thus, Anti-Nrp2^B acts to block specific aspects of Nrp2 function, inhibiting VEGFC but not VEGF or Sema3F mediated cellular responses.

B1: Nrp2 ECD: Nrp2 extracellular domain protein, positive control for blocking Sema3F (protein, UniProt O60462 21-864, looked up)
extracellular domain: RGQPDPPCGGRLNSKDAGYITSPGYPQDYPSHQNCEWIVYAPEPNQKIVLNFNPHFEIEKHDCKYDFIEIRDGDSESADLLGKHCGNIAPPTIISSGSMLYIKFTSDYARQGAGFSLRYEIFKTGSEDCSKNFTSPNGTIESPGFPEKYPHNLDCTFTILAKPKMEIILQFLIFDLEHDPLQVGEGDCKYDWLDIWDGIPHVGPLIGKYCGTKTPSELRSSTGILSLTFHTDMAVAKDGFSARYYLVHQEPLENFQCNVPLGMESGRIANEQISASSTYSDGRWTPQQSRLHGDDNGWTPNLDSNKEYLQVDLRFLTMLTAIATQGAISRETQNGYYVKSYKLEVSTNGEDWMVYRHGKNHKVFQANNDATEVVLNKLHAPLLTRFVRIRPQTWHSGIALRLELFGCRVTDAPCSNMLGMLSGLIADSQISASSTQEYLWSPSAARLVSSRSGWFPRIPQAQPGEEWLQVDLGTPKTVKGVIIQGARGGDSITAVEARAFVRKFKVSYSLNGKDWEYIQDPRTQQPKLFEGNMHYDTPDIRRFDPIPAQYVRVYPERWSPAGIGMRLEVLGCDWTDSKPTVETLGPTVKSEETTTPYPTEEEATECGENCSFEDDKDLQLPSGFNCNFDFLEEPCGWMYDHAKWLRTTWASSSSPNDRTFPDDRNFLRLQSDSQREGQYARLISPPVHLPRSPVCMEFQYQATGGRGVALQVVREASQESKLLWVIREDQGGEWKHGRIILPSYDMEYQIVFEGVIGKGRSGEIAIDDIRISTDVPLENCMEPISAFAGENFKVDIPEIHEREGYEDEIDDEYEVDWSNSSSATSGSGAPSTDKEKSWLYTLDP
modifications: extracellular domain
  semaphorin (Sema3F) induced growth cone collapse: inhibited this collapse completely
